Assay results taken from patent US20030203869A1.

Molecular target: purified HLA-A2.1 molecules (human)
Assay: inhibition of binding of a labeled reference peptide to purified HLA-A2.1

Substance | IC50
HBV Core 18 (HBV core 18-27) CTL epitope peptide […] (peptide; other documents disagree on this pair) | 3 nM
HBV Pol 551-A (native HBV pol 551-559) CTL epitope peptide […] (peptide; other documents disagree on this pair) | 200 nM
HIV Pol 476 (HIV pol 476-484) CTL epitope peptide […] (peptide; other documents disagree on this pair) | 192 nM
